Source: US20230227508A1, “SPLIT INTEIN-BASED SELECTION FOR PEPTIDE BINDERS” (priority 2020, published 2023)

Target: Expi293F human cell-derived and purified SARS-CoV-2 RBD (RBD296-531) (SARS-CoV-2), P0DTC2

Kd: 990 nM
Binder: GVCKYGEWCEIVEI (modifications not checked) [AMK-1057 (purified, PapB-modified 14 aa thioether-cyclized peptide)]
